Test results: US7276481B2, “Method and composition for treatment of skeletal dysplasias” (ProChon Biotech Ltd., priority 2001, dated 2007)
Where two headings read alike, the source gives them in different places.

Target: T1, natriuretic peptide receptor on C3H10T1/2 cells (Mus musculus, UniProt Q6VVW5)
T1 construct: endogenous in cells; host or cells: C3H10T1/2 cells
T1 sequence (Q6VVW5 23-1047 limits assumed): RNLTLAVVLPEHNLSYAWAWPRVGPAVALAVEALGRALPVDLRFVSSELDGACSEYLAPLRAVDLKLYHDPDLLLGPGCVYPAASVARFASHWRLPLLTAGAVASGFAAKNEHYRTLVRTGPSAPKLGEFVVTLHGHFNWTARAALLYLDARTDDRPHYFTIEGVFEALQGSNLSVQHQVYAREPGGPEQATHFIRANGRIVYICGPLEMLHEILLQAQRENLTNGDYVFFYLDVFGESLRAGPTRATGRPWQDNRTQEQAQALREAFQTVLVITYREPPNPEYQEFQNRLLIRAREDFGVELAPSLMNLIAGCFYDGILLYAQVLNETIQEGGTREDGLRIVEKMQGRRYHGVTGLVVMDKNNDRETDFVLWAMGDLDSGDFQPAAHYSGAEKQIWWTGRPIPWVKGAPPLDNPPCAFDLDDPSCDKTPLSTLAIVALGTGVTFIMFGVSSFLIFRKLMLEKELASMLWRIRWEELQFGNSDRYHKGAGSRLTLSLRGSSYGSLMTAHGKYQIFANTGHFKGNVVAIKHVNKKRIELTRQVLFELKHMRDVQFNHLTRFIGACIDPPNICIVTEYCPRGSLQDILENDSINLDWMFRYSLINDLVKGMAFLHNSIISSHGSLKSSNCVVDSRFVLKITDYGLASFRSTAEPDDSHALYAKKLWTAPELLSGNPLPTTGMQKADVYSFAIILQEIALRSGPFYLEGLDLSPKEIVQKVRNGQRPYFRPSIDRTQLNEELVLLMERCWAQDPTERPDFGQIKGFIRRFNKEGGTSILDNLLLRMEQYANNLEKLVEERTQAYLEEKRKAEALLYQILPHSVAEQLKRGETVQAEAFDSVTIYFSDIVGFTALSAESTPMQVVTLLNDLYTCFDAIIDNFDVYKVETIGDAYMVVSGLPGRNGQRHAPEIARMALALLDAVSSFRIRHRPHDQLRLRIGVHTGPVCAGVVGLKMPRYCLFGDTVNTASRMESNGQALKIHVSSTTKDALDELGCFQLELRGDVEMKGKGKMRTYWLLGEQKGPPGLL
Assay: Biotrak enzyme immunoassay of cGMP elicited on C3H10T1/2 cells
Assay type: cell-based
Procedure: All peptide variants were analyzed for activity using the Biotrak enzyme immunoassay (EIA, Amersham) that measures the amount of secondary messenger, cyclic GMP (cGMP), elicited after activation of the natriuretic peptide receptor by the peptide on C3H10T1/2 cells. Amino acid substitutions are marked in bold and underlined. The assay was performed for CNP and variants at a concentration of 10^−6 M. The values are given as the percent of relative binding compared to CNP, where CNP 1-22 and CNP 5-22 yield 100% binding.

[1] = Table 3, cGMP values at 10^-6 M, compared to CNP (CNP 1-22 and CNP 5-22 = 100%)
[2] = Table 2, cGMP assay, compared to CNP

Row | cGMP response as percent of CNP [1] [%] | cGMP response as percent of CNP [2] [%] | Sequence | further results
1 | −10.355 | – | C A G L K L A R I G S A S G L G C (CAGLKLARIGSASGLGC; peptide variant) [SEQ ID NO:27] | –
2 | −5.848 | – | C A G L K L A R I G S M S G L G C (CAGLKLARIGSMSGLGC; peptide variant) [SEQ ID NO:24] | –
3 | 3.933 | – | C A G L K L D R I G S A S G L G C (CAGLKLDRIGSASGLGC; peptide variant) [SEQ ID NO:25] | –
4 | – | 43.8 | C A G L K L D R I G S M S G L G C (CAGLKLDRIGSMSGLGC; peptide variant) [SEQ ID NO:6] | –
5 | 20.154 | – | C F G A K L D R I G S M S G L G C (CFGAKLDRIGSMSGLGC; peptide variant) [SEQ ID NO:40] | –
6 | 47.395 | – | C F G I K L D R I G S M S G L G C (CFGIKLDRIGSMSGLGC; peptide variant) [SEQ ID NO:41] | –
7 | 11.259 | – | C F G L K A D R I G S M S G L G C (CFGLKADRIGSMSGLGC; peptide variant) [SEQ ID NO:45] | –
8 | 88.117 | – | C F G L K I D R I G S M S G L G C (CFGLKIDRIGSMSGLGC; peptide variant) [SEQ ID NO:46] | –
9 | 5.755 | – | C F G L K L A R I G S A S G L G C (CFGLKLARIGSASGLGC; peptide variant) [SEQ ID NO:26] | –
10 | – | 49.1 | C F G L K L A R I G S M S G L G C (CFGLKLARIGSMSGLGC; peptide variant) [SEQ ID NO:7] | –
11 | – | 18.4 | C F G L K L D A I G S M S G L G C (CFGLKLDAIGSMSGLGC; peptide variant) [SEQ ID NO:8] | –
12 | 13.482 | – | C F G L K L D H I G S M S G L G C (CFGLKLDHIGSMSGLGC; peptide variant) [SEQ ID NO:48] | –
13 | 21.543 | – | C F G L K L D K I G S M S G L G C (CFGLKLDKIGSMSGLGC; peptide variant) [SEQ ID NO:49] | –
14 | 11.953 | – | C F G L K L D Q I G S M S G L G C (CFGLKLDQIGSMSGLGC; peptide variant) [SEQ ID NO:50] | –
15 | – | 11.5 | C F G L K L D R A G S M S G L G C (CFGLKLDRAGSMSGLGC; peptide variant) [SEQ ID NO:9] | –
16 | – | 4.2 | C F G L K L D R I G - - - - - - C (CFGLKLDRIGC; peptide variant) [SEQ ID NO:22] | –
17 | – | 3.4 | C F G L K L D R I G A M - - - - C (CFGLKLDRIGAMC) [SEQ ID NO:17] | –
18 | 54.469 | – | C F G L K L D R I G A M S G L G C (CFGLKLDRIGAMSGLGC; peptide variant) [SEQ ID NO:54] | –
19 | – | 3.8 | C F G L K L D R I G A Q - - - - C (CFGLKLDRIGAQC; peptide variant) [SEQ ID NO:19] | –
20 | – | 20.6 | C F G L K L D R I G A Q S - - - C (CFGLKLDRIGAQSC; peptide variant) [SEQ ID NO:15] | –
21 | 27.811 | – | C F G L K L D R I G G M S G L G C (CFGLKLDRIGGMSGLGC; peptide variant) [SEQ ID NO:55] | –
22 | 27.430 | – | C F G L K L D R I G N M S G L G C (CFGLKLDRIGNMSGLGC; peptide variant) [SEQ ID NO:57] | –

Row | cGMP response as percent of CNP [1] [%] | cGMP response as percent of CNP [2] [%] | Sequence | further results
23 | – | 22.7 | C F G L K L D R I G S - - - - - C (CFGLKLDRIGSC; peptide variant) [SEQ ID NO:21] | –
24 | 62.117 | – | C F G L K L D R I G S G S G L G C (CFGLKLDRIGSGSGLGC; peptide variant) [SEQ ID NO:69] | –
25 | 66.222 | – | C F G L K L D R I G S H S G L G C (CFGLKLDRIGSHSGLGC; peptide variant) [SEQ ID NO:66] | –
26 | 66.910 | – | C F G L K L D R I G S K S G L G C (CFGLKLDRIGSKSGLGC; peptide variant) [SEQ ID NO:67] | –
27 | – | 17.3 | C F G L K L D R I G S M - - - - C (CFGLKLDRIGSMC; peptide variant) [SEQ ID NO:16] | –
28 | – | 29.9 | C F G L K L D R I G S M S - - - C (CFGLKLDRIGSMSC; peptide variant) [SEQ ID NO:14] | –
29 | 53.649 | – | C F G L K L D R I G S M S A L G C (CFGLKLDRIGSMSALGC; peptide variant) [SEQ ID NO:58] | –
30 | −1.111 | – | C F G L K L D R I G S M S G A G C (CFGLKLDRIGSMSGAGC; peptide variant) [SEQ ID NO:63] | –
31 | −10.145 | – | C F G L K L D R I G S M S G G G C (CFGLKLDRIGSMSGGGC; peptide variant) [SEQ ID NO:64] | –
32 | 100.000 | 127.4 | C F G L K L D R I G S M S G L G C (CFGLKLDRIGSMSGLGC) [SEQ ID NO:2] | activity in cGMP assay (in words): active; cGMP response as percent of CNP (Table 3, cGMP values at 10^-6 M, compared to CNP (CNP 1-22 and CNP 5-22 = 100%), listed as CNP 5-22): 100%; activity in cGMP assay (in words) (listed as SEQ ID NO: 2): as active as the native CNP1-22
33 | 51.286 | – | C F G L K L D R I G S M S G M G C (CFGLKLDRIGSMSGMGC; peptide variant) [SEQ ID NO:62] | –
34 | −3.474 | – | C F G L K L D R I G S M S G Q G C (CFGLKLDRIGSMSGQGC; peptide variant) [SEQ ID NO:61] | –
35 | 49.202 | – | C F G L K L D R I G S M S K L G C (CFGLKLDRIGSMSKLGC; peptide variant) [SEQ ID NO:60] | –
36 | 15.289 | – | C F G L K L D R I G S M S L L G C (CFGLKLDRIGSMSLLGC; peptide variant) [SEQ ID NO:59] | –
37 | – | 11.8 | C F G L K L D R I G S Q - - - - C (CFGLKLDRIGSQC; peptide variant) [SEQ ID NO:18] | –
38 | 62.531 | – | C F G L K L D R I G S S S G L G C (CFGLKLDRIGSSSGLGC; peptide variant) [SEQ ID NO:68] | –
39 | 66.450 | – | C F G L K L D R I G S W S G L G C (CFGLKLDRIGSWSGLGC; peptide variant) [SEQ ID NO:65] | –
40 | 74.080 | – | C F G L K L D R I G T M S G L G C (CFGLKLDRIGTMSGLGC; peptide variant) [SEQ ID NO:56] | –
41 | 14.177 | – | C F G L K L D R L G S M S G L G C (CFGLKLDRLGSMSGLGC; peptide variant) [SEQ ID NO:51] | –
42 | −1.945 | – | C F G L K L D R T G S M S G L G C (CFGLKLDRTGSMSGLGC; peptide variant) [SEQ ID NO:53] | –
43 | 27.103 | – | C F G L K L D R V G S M S G L G C (CFGLKLDRVGSMSGLGC; peptide variant) [SEQ ID NO:52] | –
